In publication PMC4332406:

Biological target: Human α-defensin 5 (human)
Experiment: SPR

molar ratio: 1 | stoichiometry N: 2
Substance: Human α-defensin 5 (peptide)
